Data reported in article PMC7532178, “Interaction of protocadherin-15 with the scaffold protein whirlin supports its anchoring of hair-bundle lateral links in cochlear hair cells” (Scientific Reports, 2020).
One block for each molecule: values may come before it. No end group written: not given here. *: point of attachment. Biotin = O=C1N[C@H]2[C@H](CS[C@H]2CCCCC(=O)*)N1; TTDS = trioxatridecan-succinamic acid spacer

Columns and labels:
[1] = biological target: PCDH15-CD1 C-terminal peptide (biotin-TTDS-…) (mouse); test: SPR; harmonin fragments or full-length harmonin-a1 with C-terminal peptides; Fig. S10 and data not shown
[2] = biological target: PCDH15-CD2 C-terminal peptide (biotin-TTDS-…) (mouse); test: as above
[3] = biological target: PCDH15-CD3 C-terminal peptide (biotin-TTDS-…) (mouse); test: as above
[4] = biological target: T1, whirlin-NTR-PDZ1-Hp1 (aa residues 2-265) (mouse, UniProt Q80VW5-1 2-265); test: SPR; ProteOn XPR 36; N-terminally biotinylated peptides captured on a Neutravidin NLC sensor chip, whirlin fragments flowed as analytes at 20 μL/min for 2 min; 250 mM NaCl, 50 mM Tris pH 7.5, 0.5 mM TCEP; steady-state fit Req = (Rmax*C)/(Kd+C); mean of three experiments; Figure 4B shows the responses at 10 μM; conditions: both partners purified
T1 construct: extra 7 aa at the N-terminus of all recombinant proteins of the study; whirlin (long isoform, L-whirlin), residues 2-265: NTR (with HHD1), PDZ1 and hairpin Hp1; The methods call the 2-265 construct whirlin-NTR-PDZ1; also called NTR-PDZ1-Hp1 whirlin fragment; Nter-PDZ1-Hp1; source: E. coli BL21 (DE3) codonPlus-RIPL, purified (Glutathione Sepharose 4B, GST removed by TEV proteinase, SEC)
T1 sequence: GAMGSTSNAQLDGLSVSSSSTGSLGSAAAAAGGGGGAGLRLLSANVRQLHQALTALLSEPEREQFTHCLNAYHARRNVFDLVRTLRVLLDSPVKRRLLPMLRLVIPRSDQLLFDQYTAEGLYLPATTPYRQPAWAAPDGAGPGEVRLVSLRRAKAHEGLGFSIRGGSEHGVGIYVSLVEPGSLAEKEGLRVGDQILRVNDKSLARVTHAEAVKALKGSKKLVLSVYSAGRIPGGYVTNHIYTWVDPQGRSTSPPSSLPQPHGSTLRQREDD

[5] = biological target: T1, whirlin-NTR-PDZ1-Hp1 (aa residues 2-265); test: as above; conditions: both partners purified; remark: listed apart in the source
[6] = biological target: T2, whirlin PDZ1-Hp (aa residues 137-246) (mouse, UniProt Q80VW5-1 137-246); test: as above; conditions: both partners purified
T2 construct: extra 7 aa at the N-terminus of all recombinant proteins of the study; whirlin, residues 137-246: PDZ1 with its hairpin extension Hp1; also called PDZ1 + Hp1; whirlin PDZ1-Hp1 fragment
T2 sequence: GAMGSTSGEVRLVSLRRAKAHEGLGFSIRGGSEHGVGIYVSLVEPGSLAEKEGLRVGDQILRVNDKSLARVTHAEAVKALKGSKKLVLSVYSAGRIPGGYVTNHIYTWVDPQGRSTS

[7] = biological target: T3, whirlin-PDZ1 (aa residues 137-228) (mouse, UniProt Q80VW5-1 137-228); test: as above; conditions: both partners purified
T3 construct: extra 7 aa at the N-terminus of all recombinant proteins of the study; whirlin, residues 137-228: PDZ1 domain; also called whirlin PDZ1 domain alone; source: E. coli BL21 (DE3) codonPlus-RIPL, purified (Glutathione Sepharose 4B, GST removed by TEV proteinase, SEC)
T3 sequence: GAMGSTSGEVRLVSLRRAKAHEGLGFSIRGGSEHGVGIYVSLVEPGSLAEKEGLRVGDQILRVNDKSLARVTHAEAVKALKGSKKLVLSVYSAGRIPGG

[8] = biological target: T4, whirlin-PDZ2 (aa residues 272-368) (mouse, UniProt Q80VW5-1 272-368); test: as above; conditions: both partners purified
T4 construct: extra 7 aa at the N-terminus of all recombinant proteins of the study; whirlin, residues 272-368: PDZ2 domain; source: E. coli BL21 (DE3) codonPlus-RIPL, purified (Glutathione Sepharose 4B, GST removed by TEV proteinase, SEC)
T4 sequence: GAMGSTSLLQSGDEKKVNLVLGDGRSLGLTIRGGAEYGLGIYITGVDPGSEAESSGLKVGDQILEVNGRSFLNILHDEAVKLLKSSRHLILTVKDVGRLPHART

[9] = biological target: T5, whirlin-PDZ3 (aa residues 821-915) (mouse, UniProt Q80VW5-1 821-915); test: as above; conditions: both partners purified
T5 construct: extra 7 aa at the N-terminus of all recombinant proteins of the study; whirlin, residues 821-915: PDZ3 domain, common to L- and S-whirlin; also called whirlin PDZ3 domain
T5 sequence: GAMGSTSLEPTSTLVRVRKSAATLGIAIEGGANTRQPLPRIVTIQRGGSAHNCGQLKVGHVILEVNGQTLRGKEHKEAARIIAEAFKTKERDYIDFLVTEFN

[10] = biological target: T6, whirlin-HHD1 (aa residues 30-121) (mouse, UniProt Q80VW5-1 30-121); test: as above; conditions: both partners purified
T6 construct: extra 7 aa at the N-terminus of all recombinant proteins of the study; whirlin, residues 30-121: harmonin-homology domain 1 (HHD1); also called HHD1 domain alone; source: E. coli BL21 (DE3) codonPlus-RIPL, purified (Glutathione Sepharose 4B, GST removed by TEV proteinase, SEC)
T6 sequence: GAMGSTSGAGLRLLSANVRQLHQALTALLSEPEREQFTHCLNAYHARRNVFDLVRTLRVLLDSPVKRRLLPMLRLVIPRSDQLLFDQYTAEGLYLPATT

[11] = biological target: T7, whirlin-NTR (aa residues 2-147) (mouse, UniProt Q80VW5-1 2-147); test: as above; conditions: both partners purified
T7 construct: extra 7 aa at the N-terminus of all recombinant proteins of the study; also called entire NTR of whirlin (containing the HHD1 domain); source: E. coli BL21 (DE3) codonPlus-RIPL, purified (Glutathione Sepharose 4B, GST removed by TEV proteinase, SEC)
T7 sequence: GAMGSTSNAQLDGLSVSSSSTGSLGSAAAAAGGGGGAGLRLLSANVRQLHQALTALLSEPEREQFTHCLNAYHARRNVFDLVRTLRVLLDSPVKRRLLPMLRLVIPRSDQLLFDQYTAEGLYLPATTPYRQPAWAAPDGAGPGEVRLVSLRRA

CDH23 C-terminal peptide = biological target: T8, CDH23 C-terminal peptide (Mus musculus, UniProt Q99PF4)
T8 chain: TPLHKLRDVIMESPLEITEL

[12] = biological target: T9, PCDH15-CD1 C-terminal peptide (biotin-TTDS-GIDVQPHSQSTSL) (mouse); test: SPR; harmonin fragments or full-length harmonin-a1 with C-terminal peptides; Fig. S10 and data not shown; conditions: both partners purified
T9 construct: C-terminal 13 aa of protocadherin-15 isoform CD1, including the PBM; source: synthetic peptide (Eurogentec); not shown: biotin, N-terminal, kept
T9 peptide: {Biotin-TTDS}-GIDVQPHSQSTSL

[13] = biological target: T10, PCDH15-CD2 C-terminal peptide (biotin-TTDS-GANSEQYNTAL) (mouse); test: as above; conditions: both partners purified
T10 construct: C-terminal 11 aa of protocadherin-15 isoform CD2, including the PBM; source: synthetic peptide (Eurogentec); not shown: biotin, N-terminal, kept
T10 peptide: {Biotin-TTDS}-GANSEQYNTAL

[14] = biological target: T11, PCDH15-CD3 C-terminal peptide (biotin-TTDS-MGPWNSLHIPMTKL) (mouse); test: as above; conditions: both partners purified
T11 construct: C-terminal 14 aa of protocadherin-15 isoform CD3, including the PBM; source: synthetic peptide (Eurogentec); not shown: biotin, N-terminal, kept
T11 peptide: {Biotin-TTDS}-MGPWNSLHIPMTKL

Kd [1]: > 200 µM
Kd [2]: > 200 µM
Kd [3]: > 200 µM
Molecule: PDZ domains of harmonin in tandem association

Kd [4]: ~20 µM
Kd [5]: 11.3 µM
Kd [6]: 64 µM
Kd [7]: 141 µM
Kd [8]: > 1000 µM
Kd [9]: 4.3 µM
Kd [10]: > 1000 µM
Kd [11]: > 1000 µM
B1: CDH23 C-terminal peptide (biotin-TTDS-VIMESPLEITEL) (peptide)
peptide: {Biotin-TTDS}-VIMESPLEITEL
notes: C-terminal residues of cadherin-23, including the PBM; source: synthetic peptide (Eurogentec); not shown: biotin, N-terminal, kept

Kd (CDH23 C-terminal peptide): ~4 µM
B2: whirlin PDZ3 (protein)
chain: TSTLVRVRKSAATLGIAIEGGANTRQPLPRIVTIQRGGSAHNCGQLKVGHVILEVNGQTLRGKEHKEAARIIAEAFKTKERDYIDFLVTE

Kd [12]: > 200 µM
Kd [13]: > 200 µM
Kd [14]: > 200 µM
B3: harmonin-PDZ3 (aa residues 738-849) (domain or fragment)
chain: DPYSMFSPEQIAGKDVRLLRIKKEGSLDLALEGGVDSPVGKVVVSAVYEGGAAERHGGVVKGDEIMAINGKIVTDYTLAEAEAALQKAWNQGGDWIDLVVAVCPPKEYDDEL

Kd [12]: > 200 µM
Kd [13]: > 200 µM
Kd [14]: > 200 µM
B4: full-length harmonin-a1 (natural protein)
chain: MDRKVAREFRHKVDFLIENDAEKDYLYDVLRMYHQTMDVAVLVGDLKLVINEPNRLPLFDAIRPLIPLKHQVEYDQLTPRRSRKLKEVRLDRLHPEGLGLSVRGGLEFGCGLFISHLIKGGQADSVGLQVGDEIVRINGYSISSCTHEEVINLIRTKKTVSIKVRHIGLIPVKSSPEESLKWQYVDQFVSESGGVRGGLGSPGNRTTKEKKVFISLVGSRGLGCSISSGPIQKPGIFVSHVKPGSLSAEVGLETGDQIVEVNGIDFTNLDHKEAVNVLKSSRSLTISIVAGAGRELFMTDRERLEEARQRELQRQELLMQKRLAMESNKILQEQQEMERQRRKEIAQKAAEENERYRKEMEQISEEEEKFKKQWEEDWGSKEQLILPKTITAEVHPVPLRKPKSFGWFYRYDGKFPTIRKKAKEKKKAKYDSLQDLRKNKKELEFEQKLYKEKEEMLEKEKQLKINRLAQEVSETEREDLEESEKTQYWVERLCQTRLEQISSAENEIPEMTTGPPPPPPSVSPLAPPLRRFAGGIHLHTTDLDDIPLDMFYYPPKTPSALPVMPHPPSVNSPSKVPAPPVLPSSGHVSSSSSPWVQRTPPPIPIPPPPSIPTQDLTPTRPLPSALEEALGNHPFRTGDPGHPADDWEANTHSGKPSSSPTTERSFPPAPKTFCPSPQPPRGPGVSTISKPVMVHQEHNFVYRPAVKSEVLPQEMLKRMVVYQTAFRQDFRKYEEGFDPYSMFSPEQIAGKDVRLLRIKKEGSLDLALEGGVDSPVGKVVVSAVYEGGAAERHGGVVKGDEIMAINGKIVTDYTLAEAEAALQKAWNQGGDWIDLVVAVCPPKEYDDELSSLPSSAAESPQLARKQLEAYEPVCRHGFFLQLEPTNLLLKSRERNQTDPSWRPASSAPSP
